Results on seven sequences are retold here after the DeepSol protein solubility set.

The data set is described as follows: soluble on expression in E. coli; label from the status in PepcDB or PDB records.
Turning to “MAHHHHHHSLNVLSVSSEIYPLIKTGGLADVVGALPIALEAHGVRTRTLIPGYPAVKAAVTDPVKCFEFTDLLGEKADLLEVQHERLDLLILDAPAYYERSGGPYLGQTGKDYPDNWKRFAALSLAAARIGAGVLPGWRPDMVHAHDWQAAMTPVYMRYAETPEIPSLLTIHNIAFQGQFGANIFSKLALPAHAFGMEGIEYYNDVSFLKGGLQTATALSTVSPSYAEEILTAEFGMGLEGVIGSRAHVLHGIVNGIDADVWNPATDHLIHDNYSAANLKNRALNKKAVAEHFRIDDDGSPLFCVISRLTWQKGIDLMAEAVDEIVSLGGRLVVLGAGDVALEGALLAAASRHHGRVGVAIGYNEPLSHLMQAGCDAIIIPSRFEPCGLTQLYALRYGCIPVVARTGGLADTVIDANHAALASKAATGVQFSPVTLDGLKQAIRRTVRYYHDPKLWTQMQKLGMKSDVSWEKSAGLYAALYSQLISKGHEG”, the “soluble on expression in E. coli” value is “not soluble”.
For “MGSDKIHHHHHHMNKIVSFFILILVCSCSDRKEHIANILSMNSIDIKTNRINKDEVIARGAFPFEMIDSLFFLFNGDPSSGALVLCESNASELGHFLQKGNGFGECITPGYIGHCNDTIYVSERSRTRRMTYLLSNHNDSLQYKCLEDVSPKMNSEFYYQICRLQSGLFVGARLFGKEHLFTLLDESLDTLTTFARVPIDIEENANNKLAPFIGHLCIDDNTVYYASNDFSYMAAYDILSEKEIKPVFERMYISPIIQKSANGISLDKYKHLLGFGDIRVYQNYIFATYIGKPDITMDQENDISALVPTHLLVFNKDGVPIVKFKFPFKIRSFVFTKSKMYLLDVDCNIESVDLVELWKHLPD”, the “soluble on expression in E. coli” value was “not soluble”.
With “SDLQAAGAQAQGAAEPSRGPPLPSARGAPPSPEAGFATADHSGQERETEKAMDRLARGTQSIPNDSPARGEGTHSEEEGFAMDEEDSDGELNTWELSEGTNCPPKEQPGDLFNEDWDSELKADQGNPYDADDIQESISQELKPWVCCAPQGDMIYDPSWHHPPPLIPYYSKMVFETGQFDDAED” the entry was “soluble”; with “MKRIVILGGGFGGLYTALRVSQLPWETQQKPEIVLVDQSDRFLFSPLLYELLTGELQSWEIAPPFIELLEGTGIRFYQAVVSGIDIDQQRVHLQDGPEIPYDRLVLTLGGETPLDLVPGAISYAYPFRTIADTYRLEERLRVLEESDAEKIRVAIVGAGYSGVELACKLADRLGERGRFRLVEISDQILRTSPDFNREAAKKALDAKGVFIDLETKVESIGQNTISLEYKNQVDTIPVDLVIWTVGTRVTNVVKSLPFKQNQRGQITNTPTLQVLDHPDIFALGDLADCIDAEGQQVPATAQAAFQQADYAAWNIWASLTQRPLLPFRLEHHHHHH”, “soluble”.
Consider “MIEWQDLHHSELSVSQLYALLQLRCAVFVVEQNCPYQDIDGDDLTGDNRHILGWKNDELVAYARILKSDDDLEPVVIGRVIVSEALRGEKVGQQLMSKTLETCTHHWPDKPVYLGAQAHLQNFYQSFGFIPVTEVYEEDGIPHIGMAREVIQALEHHHHHH”, for which the “soluble on expression in E. coli” value was “not soluble”.
With “MAHHHHHHMNVFDCTLCVATTISQFLVDEVMKQVSLYGGFRHVVRCHGNPQEDFMDVKQSGEPIVLLIANQAGREALKFLCDDYHLPKEQRRVLWIHSISSGLDSYKLNELVKELQDIPLTNARGCYSSILAEHVMYSMLYFYRQTWRSLASRAEHKWDPFLMVELRGRKVGIIGYGDIGRASAKLLSAFGMEVTGVKRSASTKEVDEYGVRLVHGDAERERVLRESDFVVNILPGTEETKRLFNKELFSMMKPSAVYINIGRGITQNEDDLACALRDGVIRGASVDVFEREPLPAESPLWDISDDKILLTYHNAVLSDDFCKKAIDCFMLLARDFGSDGFASNVIQIDKFYCG” the entry was “soluble”.
With “MGSDKIHHHHHHMSQTQQSASITSETQSFDVILVGGGMVGAATAIGLAQQGLHIAVIESFAPEAYSPEQALDVRVSAISVASEHLLEQLGALDSLLKMRNVPYLGLETWELDGCITQFHSSQIGASHLGHIVENRLVQLALWEQMQQWENIRLFCPERVAHFARGVDTVSVHLQSGCLLEAKLLVGADGANSHVRQWAGIGISGWDYAQSAMLINIQTTQGQQDVTWQQFTPSGPRSLLPLPGNHASLVWYDDANRIKQLMQLNNKQLAEQIRQHFPARLDSDFIVEAKGSFALTRRHAQVYVKPNVVILGDAAHTINPLAGQGVNLGFKDVEALLSVIKAALTEDKPWWSTEVLGKYQAKRYLDNQLMMTTMDVFYAGFSNDILPLKLLRNGALKLANINSPLKQTVLKYAMGLN” the entry was “not soluble”.
